Assay results published in the supplement of paper PMC7125110.
Fewer inactive variants are shown than the library holds.

B1: glmS ribozyme (parent)
chain: AUAAAAGCGCCAGAACUACAGAAAUGUAGUUGACGAGGAGGAGGUUUAUCGAAUUUUCGGCGGAUGCCUCCAAA

Assays:
Conditions in all cases: with glucosamine-6-phosphate
glucosamine-6-phosphate [1] = variants of: B1; assay: self-cleavage kobs at 160 uM GlcN6P; higher = faster cleavage; RNA array
How it was run: (§1)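 Tiles of sequenced MiSeq chips were imaged over ~14 h at 37 °C. On them, barcoded ribozyme variants had been transcribed in situ by E. coli RNA polymerase and were tracked via a hybridised Cy3 probe while glucosamine-6-phosphate (40 μM to 10 mM) in HEPES/KCl/Mg(OAc)2 buffer flowed in. Per-tile medians, normalised to baseline and to non-cleaving reference variants, were fit to one- or two-exponential decays for kobs, and weighted Michaelis–Menten fits gave kcat and KM.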

glucosamine-6-phosphate [2] = variants of: B1; assay: self-cleavage kobs at 640 uM GlcN6P; higher = faster cleavage; RNA array
How it was run: as §1

glucosamine-6-phosphate [3] = variants of: B1; assay: self-cleavage kobs at 2500 uM GlcN6P; higher = faster cleavage; RNA array
How it was run: as §1

glucosamine-6-phosphate [4] = variants of: B1; assay: self-cleavage kobs at 10000 uM GlcN6P; higher = faster cleavage; RNA array
How it was run: as §1

Row | Variant | self-cleavage kobs at 160 uM GlcN6P (glucosamine-6-phosphate [1]) | self-cleavage kobs at 640 uM GlcN6P (glucosamine-6-phosphate [2]) | self-cleavage kobs at 2500 uM GlcN6P (glucosamine-6-phosphate [3]) | self-cleavage kobs at 10000 uM GlcN6P (glucosamine-6-phosphate [4])
1 | AUAAAACCUCCAGAACUACAGAAAUGUAGUUGACGGGGAGGAGGUUUAUCGAAUUUUCGGCGGAUGCAUCCAAA [G7C G9U A36G C68A] | < 1e-05 s⁻¹ | < 1e-05 s⁻¹ | < 1e-05 s⁻¹ | –
2 | AUAAAACCGCCAGAACUACAGAAAUGUAGUUGACGAGGAGGAGGUUUAUAGAAUUUUCGGCGGAUGCCUCCAAA [G7C C50A] | < 1e-05 s⁻¹ | < 1e-05 s⁻¹ | – | < 1e-05 s⁻¹
3 | AUAAAAGAGCCAGUACUACAGAAAUGUAGUUGACGAGGAGGAGGUUUAUCGAAUUUUCGGCGGAUGCCUCCAAA [C8A A14U] | < 1e-05 s⁻¹ | < 1e-05 s⁻¹ | < 1e-05 s⁻¹ | –
4 | AUAAAAGGGCCAGAACUACAGAAAUGUAGUUGCCGAGGAGGAGGUUUCUCGAAUUUUCGGCGGAUGCCGCCAAA [C8G A33C A48C U69G] | < 1e-05 s⁻¹ | – | < 1e-05 s⁻¹ | –
5 | AUAAAACCGCCAUAACUACAGAAAUGUAGUUGACGAGGAGGGGGUUUAUCGAAUUUUCGGCGGAUGCCUCCAAA [G7C G13U A42G] | < 1e-05 s⁻¹ | – | – | < 1e-05 s⁻¹
6 | AUAAAAGAGCCAUAACUACAGAAAUGUAGUUGACGAGGAGGAGGUUUAUCGAAUUUUCGGCGGAUGCCUCCAAA [C8A G13U] | < 1e-05 s⁻¹ | < 1e-05 s⁻¹ | < 1e-05 s⁻¹ | < 1e-05 s⁻¹
7 | AUAAAAGGGCGAGAAGUACAGAAAUGUAGUUGAAGAGGAGGAGGUUUAUCGAAUUUUCGGCGGAUGCCUCCAAA [C8G C11G C16G C34A] | < 1e-05 s⁻¹ | – | < 1e-05 s⁻¹ | –
8 | AUAAAACCGCCAGAACUACAGAAAUGUAGUUGACGAUGAGGAGGUUUAUCGAAUUUUCGGCGGAUGCCUCCAAA [G7C G37U] | < 1e-05 s⁻¹ | < 1e-05 s⁻¹ | < 1e-05 s⁻¹ | –
9 | AUAAAAGAGCCAGAACUACAGAAAUGUAGUUGUCGAGGAGGAGGUUUAUCGAAUUUUCGGCGGGUGUCUCGAAA [C8A A33U A64G C67U C71G] | < 1e-05 s⁻¹ | – | – | –
10 | AUAAAACCGCCAGAACUACAGAAAUGUAGUUGACGAGGAGCAGGUUUAUCGAAUUUUCGGCGGAUGCCUCCAAA [G7C G41C] | < 1e-05 s⁻¹ | < 1e-05 s⁻¹ | – | < 1e-05 s⁻¹
11 | AUAAAAUCGCCAUAUCUACAGAAAUGUAGUUGACGAGGACAAGGUUUAUCGUAUUUUCGGCGGAUGCCUCCAAA [G7U G13U A15U G40C G41A A52U] | < 1e-05 s⁻¹ | < 1e-05 s⁻¹ | < 1e-05 s⁻¹ | –
12 | AUAAAAGAGCCAGAUCUACAGAAAUGUAGUUGACGAGGAGGAGGUUCAUCGAAUAUUCGGCGCAGGCCUCCAAA [C8A A15U U47C U55A G63C U65G] | < 1e-05 s⁻¹ | – | – | –
13 | AUAAAAGGGCCAGAAUUACAGAAAUGUAGUUGAUGAGGAGGAGGUUUAUCGAAUUUUCGGCGGAGGCCUCCAAA [C8G C16U C34U U65G] | < 1e-05 s⁻¹ | – | – | –
14 | AUAAAAGAGCCAGAACUACAGAAAUGUAGUUGACGAGGAGGAGGUUUAUCGAAUUUUCGGCGGAUGCCUGCAAA [C8A C70G] | < 1e-05 s⁻¹ | – | – | –
15 | AUAAAACCGCCAGAACUACAGAAAUGUAGUGGACGAGGAGGAGGUUUAUCGAAUUUUCGGCGGAUGCCUCCAAA [G7C U31G] | < 1e-05 s⁻¹ | – | < 1e-05 s⁻¹ | < 1e-05 s⁻¹
16 | AUAAAAUUGCCGGAACUACAGAAAUGUAGUUGACGAGGAGGAGGUUUAUCCAAUUUUCGGUGGAUGCCUCCAAA [G7U C8U A12G G51C C61U] | < 1e-05 s⁻¹ | < 1e-05 s⁻¹ | – | –
